For assay [1], the target named is T1, human CD30 (human, UniProt P28908 19-595).
T1 sequence (looked up): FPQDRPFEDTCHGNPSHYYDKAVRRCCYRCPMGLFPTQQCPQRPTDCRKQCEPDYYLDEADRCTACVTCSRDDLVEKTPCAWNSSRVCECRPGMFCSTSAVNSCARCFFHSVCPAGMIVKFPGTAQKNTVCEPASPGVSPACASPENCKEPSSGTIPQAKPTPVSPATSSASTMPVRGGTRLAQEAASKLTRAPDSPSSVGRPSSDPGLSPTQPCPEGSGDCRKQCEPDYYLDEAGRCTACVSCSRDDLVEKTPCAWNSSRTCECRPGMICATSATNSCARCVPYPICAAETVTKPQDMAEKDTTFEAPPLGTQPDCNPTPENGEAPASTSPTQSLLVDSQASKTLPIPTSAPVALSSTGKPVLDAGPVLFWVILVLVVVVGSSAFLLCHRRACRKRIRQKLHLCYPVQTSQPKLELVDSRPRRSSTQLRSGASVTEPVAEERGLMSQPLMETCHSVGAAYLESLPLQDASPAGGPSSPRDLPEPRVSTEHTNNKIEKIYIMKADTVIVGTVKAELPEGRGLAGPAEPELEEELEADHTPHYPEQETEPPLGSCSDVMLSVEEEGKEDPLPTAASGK
The assay is described as follows: cell-based or functional assay.

For assay [2], the target named is T1, human CD30. As to the kind of experiment: Scatchard analysis, 125I-labelled antibody on CD30 positive L540 cells, 4 °C. Here is the method:
(§1) Human or cynomolgus peripheral blood cells were stimulated with 2 μg/ml PHA, 10 μg/ml Con A, and 50 U/ml rIL-2 and cultured in RPMI1640 media containing 10% fetal bovine serum (FBS) at 1×10⁶ cells/ml density for 3 days. On the day of the study, the cells were washed and adjusted to 2×10⁷ cells/m in binding buffer (RPMI1640+10% FBS). As a control, CD30 positive L540 cells (adjusted to 4-8×10⁶ cells/ml) were used in these studies since they express high levels of the antigen. The cells were placed on ice until the initiation of the experiment. Millipore glass fiber filter plates (MAFBN0B50) were coated with 1% nonfat dry milk in water and stored a 4° C. overnight. The plates were washed three times with 0.2 ml of binding buffer. Fifty microliters of buffer alone was added to the maximum binding wells (total binding). Twenty-five microliters of buffer alone was added to the control wells. Varying concentration of ¹²⁵I-anti-CD30 antibody was added to all wells in a volume of 25 μL. Varying concentrations of unlabeled antibody at 300-400 fold excess were added in a volume of 25 μl to control wells (non-specific binding) and 25 μl of CD30 positive L540 cells or stimulated human or cynomolgus peripheral blood cells in binding buffer were added to all wells. The plates were incubated for 2 hours at 200 RPM on a shaker at 4° C. […] The filters were removed and counted in a gamma counter. […]

Assay [3] addresses T1, human CD30. As to the kind of experiment: Scatchard analysis, 125I-labelled antibody on PHA/Con A/rIL-2-activated human peripheral blood cells, 4 °C. On the procedure: as §1
Assay [4] has as its target T2, cynomolgus CD30 on PHA, Con A and rIL-2 activated cynomolgus peripheral blood mononuclear cells (cynomolgus, UniProt A0A2K5VW07 29-603).
T2 construct: whole, on cells
T2 sequence: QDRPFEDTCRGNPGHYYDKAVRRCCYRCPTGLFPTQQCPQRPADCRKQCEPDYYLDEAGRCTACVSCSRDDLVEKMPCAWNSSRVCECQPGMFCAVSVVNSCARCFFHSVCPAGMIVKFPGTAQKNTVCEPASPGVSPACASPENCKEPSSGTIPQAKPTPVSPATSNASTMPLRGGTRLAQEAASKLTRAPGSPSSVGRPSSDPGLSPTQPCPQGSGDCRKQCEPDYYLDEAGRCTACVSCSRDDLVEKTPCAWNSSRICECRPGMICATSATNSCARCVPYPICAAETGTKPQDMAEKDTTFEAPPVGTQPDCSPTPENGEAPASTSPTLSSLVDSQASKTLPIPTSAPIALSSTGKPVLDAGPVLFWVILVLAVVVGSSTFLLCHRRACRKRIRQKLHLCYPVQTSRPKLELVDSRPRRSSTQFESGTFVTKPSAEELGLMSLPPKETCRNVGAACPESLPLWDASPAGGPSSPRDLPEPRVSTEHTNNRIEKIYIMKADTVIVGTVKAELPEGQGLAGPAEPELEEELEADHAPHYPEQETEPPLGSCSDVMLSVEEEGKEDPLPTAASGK
The assay is described as follows: Scatchard analysis, 125I-labelled antibody on PHA/Con A/rIL-2-activated cynomolgus peripheral blood mononuclear cells, 4 °C. On the procedure: as §1

Data on 2 molecules can be found in patent publication US20100021479A1 (Bristol-Myers Squibb, published 2010).

B1: fucosylated 5F11 anti-CD30 fully human monoclonal antibody (expressed in CHO DG44 cells) (antibody, IgG1, V domains shown)
VH: QVQLQQWGAGLLKPSETLSLTCAVYGGSFSAYYWSWIRQPPGKGLEWIGDINHGGGTNYNPSLKSRVTISVDTSKNQFSLKLNSVTAADTAVYYCASLTAYWGQGSLVTVSS
VL: DIQMTQSPTSLSASVGDRVTITCRASQGISSWLTWYQQKPEKAPKSLIYAASSLQSGVPSRFSGSGSGTDFTLTISSLQPEDFATYYCQQYDSYPITFGQGTRLEIK
notes: It was made in CHO DG44 (FUT8+/+) cells, so the carbohydrate contains fucose; also called fuc-5F11; Anti-CD30 + fucose
For the molecule B1, in assay [1], the “EC50 of ADCC, Karpas cells” value is 0.25 µg/mL; the “EC50 of ADCC, L428 cells” value came out at 0.1 µg/mL; the “EC50 of ADCC, L540 cells” value was determined as 0.042 µg/mL; the “EC50 of ADCC, L1236 cells” value was found to be 1.22 µg/mL. Moreover, the Kd in assay [2] was 1.37 nM. In assay [3], this molecule had a Kd of 1.08 nM. The molecule also showed a dissociation constant (Kd) in assay [4] of 0.47 nM.

B2: defucosylated 5F11 anti-CD30 fully human monoclonal antibody (expressed in FUT8-/- Ms704 cells) (antibody, V domains shown)
VH: QVQLQQWGAGLLKPSETLSLTCAVYGGSFSAYYWSWIRQPPGKGLEWIGDINHGGGTNYNPSLKSRVTISVDTSKNQFSLKLNSVTAADTAVYYCASLTAYWGQGSLVTVSS
VL: DIQMTQSPTSLSASVGDRVTITCRASQGISSWLTWYQQKPEKAPKSLIYAASSLQSGVPSRFSGSGSGTDFTLTISSLQPEDFATYYCQQYDSYPITFGQGTRLEIK
With B2, in assay [1], the “% Lysis ratio fucose-:fucose+, ADCC, Karpas cells” value came out at 2.63 fold; the “% Lysis ratio fucose-:fucose+, ADCC, L428 cells” value turned out to be 2.15 fold; the “% Lysis ratio fucose-:fucose+, ADCC, L540 cells” value was 1.61 fold; the “% Lysis ratio fucose-:fucose+, ADCC, L1236 cells” value was found to be 3.25 fold. Also, in assay [1], the “EC50 ratio fucose+:fucose-, ADCC, Karpas cells” value worked out at 7.8 fold; the “EC50 ratio fucose+:fucose-, ADCC, L428 cells” value was 11.1 fold; the “EC50 ratio fucose+:fucose-, ADCC, L540 cells” value was found to be 4.7 fold; the “EC50 ratio fucose+:fucose-, ADCC, L1236 cells” value stood at 27.1 fold.
